# Data as given in patent US20240301061A1 (BEIGENE SWITZERLAND, published 2024).
# Changes are numbered by the printed parent chain. Names and notes keep the numbering of the source.
# B1: BG87P-22 (antibody, V domains shown)
# VH: QVQLVQSGAEVKKPGASVKVSCKASGYSFTDYHINWVRQAPGQRLEWMGWIYPGSGYTKYNEKFKGRVTITRDTSASTAYMELSSLRSEDTAVYFCARSGIYHYVSSYYFDHWGKGTTVTVSS
# VL: DIQMTQSPSTLSASVGDRVTITCKASQDVGTAVAWYQQKPGKAPKLLIYWASTRHTGVPSRFSGSGSGTEFTLTISSLQPDDFATYYCQQYSSYTFGGGTKVEIK
# B2: BG87P-21 (antibody, V domains shown)
# VH: B1 VH with F95Y
# VL: B1 VL
# notes: 2nd round humanized variant
# B3: BG87P-z0 (antibody, V domains shown)
# VH: B1 VH with S28T, G66V, F95Y
# VL: B1 VL
# notes: Humanized, no back mutations; also called BG87P-20
# B4: BG87P-24 (antibody, V domains shown)
# VH: B1 VH with I70L, F95Y
# VL: B1 VL
# B5: BG87P-25 (antibody, V domains shown)
# VH: B1 VH with V2I, I70L, F95Y
# VL: B1 VL
# B6: BG87P-27 (antibody, V domains shown)
# VH: B1 VH with I70L
# VL: B1 VL
# B7: BG87P-23 (antibody, V domains shown)
# VH: B1 VH with V2I, F95Y
# VL: B1 VL
# B8: BG87P-26 (antibody, V domains shown)
# VH: B1 VH with V2I
# VL: B1 VL
# B9: anti-CLDN6 chimeric BG87P (antibody, V domains shown)
# VH: QIQLQQSGPELVKPGASVKISCKASGYSFTDYHINWVKQRPGQGLEWIGWIYPGSGYTKYNEKFKVKATLTVDTSSSTAYMHLTSLTSEDSAVYFCARSGIYHYVSSYYFDHWGQGTTLTVSS
# VL: DIVMTQSHTFMSTSVGDRVSITCKASQDVGTAVAWYQQKPGQSPKLLIYWASTRHTGVPDRFTGSGSGTDFTLTISNVQSEDLADYFCQQYSSYTFGGGTKLEIK
# notes: expressed in HEK293T; also called chBG87P; ChBG87P
# B10: BG87P-32 (antibody, V domains shown)
# VH: B1 VH with V5Q, V11T, P41S, W50Y, Y57H, Y60K, F95Y
# VL: B1 VL with V29A, T31S
# notes: Solubility engineering variant of BG87P-21
# B11: BG87P-31 (antibody, V domains shown)
# VH: B1 VH with V5Q, V11T, P41S, W50Y, Y57H, Y60K, F95Y
# VL: B1 VL with V29A, T31S, Y49K
# notes: as for B10
# B12: BG87P-33 (antibody, V domains shown)
# VH: EVQLQESGGGLVQPGGSLRLSCAASGYSFTDYHINWVRQAPGKGLEWVSYIYPGSGHTKYNEKFKGRFTISRDTSKNTAYLQMNSLRAEDTAVYYCARSGIYHYVSSYYFDHWGQGTLVTVSS
# VL: B1 VL with V29A, T31S
# notes: Framework-swapped variant; also called BG87-33
# B13: BG87P-34 (antibody, V domains shown)
# VH: B12 VH with T30S, S49G, K76S
# VL: B1 VL with T10S, V29A, T31S, E70D, D81E, V102L
# notes: Final lead anti-CLDN6 clone (IGHV3-23 / IGKV1-39 framework); also called BG87-34
# B14: BG87P-Bz0 (antibody, V domains shown)
# VH: B1 VH with V2I, G66V, I70L, R72V
# VL: B1 VL with A43S, L78V, Y87F
# notes: Humanized, all back mutations; also called BG87P-B20; BG87-Bz0
# B15: BG87P-Bz3 (antibody, V domains shown)
# VH: B1 VH with V2I, G66V, R72V
# VL: B1 VL with A43S, L78V, Y87F
# notes: also called BG87P-B23
# B16: BG87P-m7 (antibody, V domains shown)
# VH: B1 VH with V2I, I70L, R72V
# VL: B1 VL with A43S, L78V, Y87F
# notes: PTM removal variant of BG87P-Bz0
# B17: BG87P-Bz8 (antibody, V domains shown)
# VH: B1 VH with V2I, G66V, I70L, R72V
# VL: B1 VL with A43S, L78V
# B18: BG87P-m6 (antibody, V domains shown)
# VH: B1 VH with V2I, G66V, I70L, R72V, D111Q
# VL: B1 VL with A43S, L78V, Y87F
# notes: as for B16
# B19: BG87P-Bz6 (antibody, V domains shown)
# VH: B1 VH with V2I, G66V, I70L, R72V
# VL: B1 VL with L78V, Y87F
# notes: also called BG87P-B26
# B20: BG87P-Bz4 (antibody, V domains shown)
# VH: B1 VH with V2I, G66V, I70L
# VL: B1 VL with A43S, L78V, Y87F
# notes: also called BG87P-B24
# B21: BG87P-m5 (antibody, V domains shown)
# VH: B1 VH with V2I, G66V, I70L, R72V, D111E
# VL: B1 VL with A43S, L78V, Y87F
# notes: as for B16
# B22: BG87P-m8 (antibody, V domains shown)
# VH: B1 VH with V2I, H33A, G66V, I70L, R72V
# VL: B1 VL with A43S, L78V, Y87F
# notes: Variant of BG87P-Bz0 with H33A
# B23: BG87P-Bz2 (antibody, V domains shown)
# VH: B1 VH with V2I, S28T, G66V, I70L, R72V
# VL: B1 VL with A43S, L78V, Y87F
# B24: BG87P-Bz5 (antibody, V domains shown)
# VH: B1 VH with V2I, G66V, I70L, R72V, F95Y
# VL: B1 VL with A43S, L78V, Y87F
# notes: also called BG87P-B25
# B25: BG87P-Bz1 (antibody, V domains shown)
# VH: B1 VH with G66V, I70L, R72V
# VL: B1 VL with A43S, L78V, Y87F
# B26: BG87P-Bz7 (antibody, V domains shown)
# VH: B1 VH with V2I, G66V, I70L, R72V
# VL: B1 VL with A43S, Y87F
# notes: also called BG87P-B27
# B27: BG87P-m4 (antibody, V domains shown)
# VH: B9 VH with H33A
# VL: B9 VL
# notes: Variant of chBG87P with H33A
# B28: BG87P-m3 (antibody, V domains shown)
# VH: B9 VH with V66G
# VL: B9 VL
# notes: PTM removal variant of chBG87P with VH V65G
# B29: BG87P-m2 (antibody, V domains shown)
# VH: B9 VH with D111Q
# VL: B9 VL
# notes: PTM removal variant of chBG87P
# B30: BG87P-m1 (antibody, V domains shown)
# VH: B9 VH with D111E
# VL: B9 VL
# notes: as for B29
# Target: T1, human claudin 6 (CLDN6) (human, UniProt P56747 1-220)
# T1 construct: also called human CLDN6; hCLDN6
# T1 sequence: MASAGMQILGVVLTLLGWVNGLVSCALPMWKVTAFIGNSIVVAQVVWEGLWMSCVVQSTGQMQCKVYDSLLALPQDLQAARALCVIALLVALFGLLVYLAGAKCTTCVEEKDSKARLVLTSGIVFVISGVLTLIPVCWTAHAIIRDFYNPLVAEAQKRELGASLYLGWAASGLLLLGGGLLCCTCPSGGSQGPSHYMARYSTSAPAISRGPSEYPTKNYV
# Assay: flow cytometry, PA-1 cells
# Method: (§1) For affinity determination, CLDN6 over-expressing HEK293T cells and cancer cell line PA-1 which express high levels of human CLDN6 were used to evaluate the binding activity of BG87P related engineering variants. Live cells were seeded in 96-well plate, and were incubated with a series of dilutions of chBG87P and engineered variants thereof. Goat anti-human IgG was used as second antibody to detect antibody binding to the cell surface. EC50 values for dose-dependent binding to CLDN6 expressing cell lines were determined by fitting the dose-response data to the four-parameter logistic model with GraphPad Prism. Cell binding activity of 1st round of BG87P humanization variants against HEK293T/human CLDN6 were compared to chBG87P and shown in FIG. 1A.
row,Binder,Top MFI Mean
1,B1,67800 MFI
2,B2,76500 MFI

# Target: T1, human claudin 6 (CLDN6)
# Assay: flow cytometry, PA-1 cells; ratio to chBG87P
# Method: as §1
row,Binder,Emax ratio to BG87P
1,B1,0.54
2,B3,0.43
3,B4,0.5
4,B5,0.59
5,B2,0.61
6,B6,0.53
7,B7,0.58
8,B8,0.54
9,B9,1

# Target: T1, human claudin 6 (CLDN6)
# Assay: flow cytometry, HEK293-hCLDN6 cells; ratio to chBG87P
row,Binder,FACS-Ec50 ratio to BG87P
1,B10,1.31
2,B11,1.6
3,B12,2.45
4,B13,1.17
5,B2,0.91
6,B9,1

# Target: T1, human claudin 6 (CLDN6)
# Assay: flow cytometry, HEK293T-hCLDN6 cells; ratio to chBG87P
row,Binder,FACS Emax ratio to BG87P
1,B10,0.63
2,B11,0.76
3,B12,0.91
4,B13,1.03
5,B2,0.66
6,B9,1

# Target: T2, cyno CLDN6 (cyno)
# T2 construct: whole, on cells; also called cynomolgus CLDN6
# Assay: flow cytometry, HEK293T-cyno-CLDN6 cells; ratio to chBG87P
row,Binder,FACS Emax ratio to BG87P
1,B12,0.75
2,B13,1
3,B2,0.8
4,B9,1

# Target: T1, human claudin 6 (CLDN6)
# Assay: flow cytometry, HEK293T-human CLDN6 cells; ratio to chBG87P
# Method: as §1
row,Binder,Emax ratio to BG87P
1,B14,0.56
2,B15,0.56
3,B1,0.71
4,B3,0.5
5,B16,0.7
6,B4,0.73
7,B17,0.68
8,B18,0.62
9,B19,0.75
10,B20,0.57
11,B5,0.74
12,B21,0.66
13,B2,0.78
14,B22,0.28
15,B23,0.44
16,B6,0.68
17,B24,0.73
18,B25,0.52
19,B7,0.77
20,B8,0.77
21,B26,0.81
22,B9,1
23,B27,0.74
24,B28,1.18
25,B29,1.05
26,B30,1.08
